experiment: soluble on expression in E. coli; label from the status in PepcDB or PDB records

Sequence	soluble on expression in E. coli
MKAARQQAIVDLLINHKSLTTEALATRLNVSKETIRRDLSELQTQGKVLRNHGRAKYIHRENQDSGDPFHIRLKSHYAHKADIAREALAWIEEGMTIALDASSTCWYLARQLPDIPIQVFTNSHPICQELGKRERIALISSGGQLERKYGCYVNPSLISQLKSLDIDLFIFSCEGIDGGGDLWDSNAINADFKSILLRRASQSLLLIDKSKFNRSGEARIGHLDDVTHIVSDAPQSLEHHHHHH	not soluble
MKAFEFLYEDFQRGLTVVLDKGLPPKFVEDYLKVCGDYIDFVKFGWGTSAVIDRDVVKEKINYYKDWGIKVYPGGTLFEYAYSKGKFDEFLNECEKLGFEAVEISDGSSDISLEERNNAIKRAKDNGFMVLTEVGKKMPDKDKQLTIDDRIKLINFDLDAGADYVIIEGRESGKGKGLFDKEGKVKENELDVLAKNVDINKVIFEAPQKSQQVAFILKFGSSVNLANIAFDEVISLETLRRGLRGDTFGKV	soluble
MKAILQRSIALLALAAGMSSVACADEVKMRVLGWYGNQPQSQQVERPFWKDLPKRSNGAFSANFRTIDELGLKGFESLRTLQSGAFDVVSFQISFVGGDAPVLMGADLPGAAFDFDQLQKNLDAYRPILEKELNDRFKAKLLTAWSFPFQILYCKGDIKTLDDLKGKKVRVSGTYTAKMVADLNAAGATLAGPEVYQGLMQGVVDCAITGSQYGNSNDWFEVAHSLSPIPLGGAGVVLQVARNAFWDKLSADQQAALSAEMKQLETALWDISRKGHEDGINCNVGKQPCTGKPGKMQLVEPTEADVREVKQLLKTSIVPMWIEDCSKFSKTCGDDWFRTIGAAAGIARLEHHHHHH	not soluble
MKALLEWIRKDMKPALGVTEPAAIALACAAARAMTEEPAECLLVRENSGIYKNAFTCGIPGTDKIGNEFAAALGCVAGDKEKGLLVLEEISDADVEAAKRFIEDGKVKVEVSQISSELFIYACVRTEHDCCEAEIRGQHTNICRLVKNGRVLLEKKTRELEETARPGSLTDYTMEEFFRFAKETPVEDLYFIREAYRVNLELAKAALTSERCTLTKSLLAFNGGTDVSGDLRATARFFAGAASEARVLGLDKPAMSITGSGNHGIICTMPLYAMYRVEHHSEESLLRATVLSYLITMYMKEYSGKLSAFCGCAVAAGTGMACAMTFMRGGGFEEVLATLNNMAASIVGMICTGGNHACCMKVLAAVDTAVTSTELALSGKCISPEHGVADVCPEKTMQNIGLIAYPGMTETERVILEIMQNKKGGAKGHEETD	not soluble
MKALTYHGPHHVKVENVPDPGIEQPDDIILRVTATAICGSDLHLYRGKIPQVKHGDIFGHEFMGEVVETGHDVKNIRKGDRVVIPFVIACGDCFFCRLQQYSACENTNDGHGAAMNKKQIPPPAALFGYSHLYGGVPGGQAEYVRVPKGNVGPFKVPPLLSDDKALFLSDILPTAWQAAKNAQIQQGFSVAVFGAGPVGLLTIACARLLGAEQIFVVDHHAWRLRFAEERYGAIPINFDDENDPAEKIIEQTAGHRGVDAVIDAVGFEAKGSLTETVLTNLKLEGSSGKALRQCIAAVRRGGVVSVPGVYAGFIHGFLFGDAFDKGLTFKMGQTHVHAWLGELLPLIEKGLLKPEEIVTHYMPFEEAARGYEIFEKREEECRKVILVPGATSAQAAQKQATGVVNPMPGGVV	not soluble
MKANTIIAGLLSSTLLATAAYAQTPAPADSTRTMSKSTSASESQHMGQWRASKLIGVNVYNQGNEKLGDISEMLIDSEGRIQGVVIGVGGFLGVGQRDVAVTFDKLQWVNTPVSSNTAMNSQTTPAGSGTSTASPAGTTTGAATSTTAANNADRWYPDHAVLNATKDQLKSMPEFKYSK	not soluble
MKAPAFTEAKLQDPIPAKIYDKNGELVKTLDNGQRHEHVNLKDVPKSMKDAVLATEDNRFYEHGALDYKRLFGAIGKNLTGGFGSEGASTLTQQVVKDAFLSQHKSIGRKAQEAYLSYRLEQEYSKDDIFQVYLNKIYYSDGVTGIKAAAKYYFNKDLKDLNLAEEAYLAGLPQVPNNYNIYDHPKAAEDRKNTVLYLMHYHKRITDKQWEDAKKIDLKANLVNRTPEERQNIDTNQDSEYNSYVNFVKSELMNNKAFKDENLGNVLQSGIKIYTNMDKDVQKTLQNDVDNGSFYKNKDQQVGATILDSKTGGLVAISGGRDFKDVVNRNQATDPHPTGSSLKPFLAYGPAIENMKWATNHAIQDESSYQVDGSTFRNYDTKSHGTVSIYDALRQSFNIPALKAWQSVKQNAGNDAPKKFAAKLGLNYEGDIGPSEVLGGSASEFSPTQLASAFAAIANGGTYNNAHSIQKVVTRDGETIEYDHTSHKAMSDYTAYMLAEMLKGTFKPYGSAYGHGVSGVNMGAKTGTGTYGAETYSQYNLPDNAAKDVWINGFTPQYTMSVWMGFSKVKQYGENSFVGHSQQEYPQFLYENVMSKISSRDGEDFKRPSSVSGSIPSINVSGSQDNNTTNRSTHGGSDTSANSSGTAQSNNNTRSQQSRNSGGLTGIFN	soluble
MKATGFMGPCYAKAMATRYRFGLEEYERLFRGIRDVELLAGEVYRMSPIGPKHAWSVARLNRLFTEALGDRAVVWPQNPIRIPPHSEPQPDLALLRPKSYGEGLPTPEDVLLLVEVAETSLEHDQGLKLSLYAQAGIPEVWVLDLKENRLHVYRTPKAGVYTEHRILLPGEEAEPLAFPGVRIPWS	soluble
MKAVKPMTDNISVLIMGVDESEIRDKNYGKATRTDALLLATINKNDKSVKLVSIPRDSRVYIKSRDKYDKITHAHVFGGVDSTIDTVENFLDVPVDYYVKFNFKSFIKIVDSLGGITVDVPVEFTEQNSKDEADAVHLKKGRQHLNGEEALALARTRHIDSDYMRGQRQQLVLEAIAQKALSLNSINKIGGLLDAVDKDLKTNLTFDDMMTIAKNSMDSNLKMDKMQVEGTDKYIGGIYYYVPNEKSVNTISTTLQEHLGVTNKNEHKKLLEHHHHHH	soluble
MKAVTYDTDSELAYIYVLPPKKNRNVRTEELRVNDCLLLDISQDGKIAGFECFGEAAHLCAPFAGKSRLYVKDSDGYHFRVCQHASVRSCYTVYRVTFCFSDGDYQEFAGFDLDGTMYHSAFLQRLTEKLEHHHHHH	not soluble
MKDKIIDNAITLFSEKGYDGTTLDDIAKSVNIKKASLYYHFDSKKSIYEQSVKCCFDYLNNIIMMNQNKSNYSIDALYQFLFEFIFDIEERYIRMYVQLSNTPEEFSGNIYGQIQDLNQSLSKEIAKFYDESKIKMTKEDFQNLILLFLESWYLKASFSQKFGAVEESKSQFKDEVYSLLNIFLKK	not soluble
MKDLDFSKKPLIGVVHLKPLPGSPRYGGDFEEVIEWAIRDAKTYEEAGFDGIIVENFGDSPFSKTLPREVIPAFTVVAKAVKKEVSLPLGINALRNDCIVAYSIAHAVGGSFIRVNVLTGVAFTDQGIIEGCARELWNVKRIIGGDILTLADVHVKHAVHFTNFEDAVKDTVERGLADGIIVTGRRTGESISLEDLILAKRVSSIPVLVGSGVNPRNFRTLFKYADGFIVGTWVKENGKINNPVSLERAKILVRMKNSLMGVLEHHHHHH	not soluble
MKDLKLDEHTGLVLEGGGMRGVFTCGVLDYLMDHDIRFPYAIGVSAGACNGLSYASRQRGRAKFSNIDLLEKYNYIGLKHLLRKRNILDFDLLFNEFPEHILPYDYDTYFASPERFVMVTTNCMTGEANYFEEKRDKSRVIDIVRASSSLPFVCPVTYVDGVPMLDGGIVDSIPLQRAIADGYTRNVVILTRNRGYRKDTKDIRIPSFVYRKYPKLREALSRRCAVYNEQLEMVEQMEDEGKIIVIRPQKPVMVDRIERDVQKLTEFYEEGYDCARNLFEF	soluble
MKDLVDTTEMYLRTIYELEEEGVTPLRARIAERLEQSGPTVSQTVARMERDGLVVVASDRSLQMTPTGRTLATAVMRKHRLAERLLTDIIGLDINKVHDEASRWEHVMSDEVERRLVKVLKDVSRSPFGNPIPGLDELGVGNSDAAAPGTRVIDAATSMPRKVRIVQINEIFQVETDQFTQLLDADIRVGSEVEIVDRDGHITLSHNGKDVELLDDLAHTIRIEEL	soluble
MKDSLQTIGVFVRPTHYQNPLFEKLEQAKEWVLKLLEDEGFESFMIDSLDGAKDARLIEKADAFLCLGGDGTILGALRMTHSYNKPCFGVRIGNLGFLSAVELNGLKDFLQDFKQDRIKLEEHLALEGRIGKTSFYAINEIVIAKKKALGVLDIKAYAGHTPFNTYKGDGLIIATPLGSTAYNLSAHGPIVHALSQSYILTPLCDFSLTQRPLVLGAEFCLNFCAHEDALVVIDGQATYDLKANQPLYIQKSPTTTKLLQKNSRDYFKVLKEKLLWGESPSKKRLEHHHHHH	soluble
MKDVIEKRHIRAEVPIELTWDLSDLYESDKKWETALRVLTDDIKKLDAFKGQLHTSPTTLLHCLLLEEELLMKLTKLYSYANLKESTDRTNPVIQANSSKIAALWTKVHTALSFIHNEILSLEEGTIEKYLTKETKLEPFRKSLLDILQKRQYTLSPETEEALAALGEVHSSPYKIYGMTKLADMDFNSIQDEQGNELPVSFSLFESKYEFSPSVDIRRKAYSSFVSTLKRYKNTVATTYATEVKKQVTLSRLRKFESVTHMLLEPQNVPLEMYNNQLDIIYKELAPHMRRFADLKKKVLGLDQMLFCDLHAPLDPEFNPAITYEEAGKLIQDSLQVLGDEYSAIIKKGFKERWVDLADNVGKSTGAFCSSPYGSHPYILITWQNTMRGCFTLAHEFGHAGHFYLANKNQRIMNVRPSMYFVEAPSTMNELLLAQHLLATTDDKRMRRWVILQLLGTYYHNFVTHLLEGEYQRRVYSLAEEGEALTATTLTEIKTNVLSTFWGNSVEIDEGAGLTWMRQPHYYMGLYSYTYSAGLTASTAVAQMIKEEGQPAVDRWLDVLRAGGTMKPLELMKHAGVDMSKPDAIRKAVSYVGSLIDELERSYEE	not soluble
MKDVVEYLVRYLVDRPEAVRVQVRRGKEGTVYLVEVAPEDKGRLIGKGGRVIESLRTVVRAYAKRKVGVEVR	soluble
MKEGMKVVLVGSPGIEGTWILAKDYDQLLLEKGISREIIEKAKEFKKDIVVQPKALSILDYVVAMHDATEGGIMQAMLEVAKASGYTVSINLDKIVLRRETKIITKALNIDPLRLISSGSFIAVSNTPEKILERISEAYIIGEIKRGDPVLEIK	soluble
MKEKIPFYNEKEFNEMMKKTKKGTFSGWYIINPENNSVEFSGSFNRQFKLNKPIIPVNTEYVTRKEFNEYKDSNDQRLIKIETTLTAQGEQINKLTQTVEKQGEQIRELQVEQKAQGEQIKAQGETLKLILQTLQKMSDRLDKIDPPK	soluble
MKELETRIIDIDVEKLRETLNKLGAKNVKRENQTNDIFDFPDRKLLDKKGYARIRTVEDLINNKTVYFMTTKKMLSQDKFKVMEENETIIEDGAMGKNIFKSLGLELFETIKKYRESYKYKDSLIEIDINDPSFCPFPYIEIETSSEEKLNEILIDLGYSMEDTTSKTIYEILKDKGISPDSNKKGLLEHHHHHH	soluble
MKENAVRRANDPKRREKIIQATLEAVKTYGVHAVTHRKIAAIAQVPLGSMTYYFAGMDALLSEAFTLFTENMSRQYQDFFAQVTDAEGACQAITEMIYGSQVTTPDNMALMYQLYAYASDKPALKIVMQNWMQRSQNTLAQWFDAQTARALDAFIEGMTLHFVTDRTPLAREAILQMVKRIAGVSMSCHSALGNKKPTNLEPKWRG	not soluble
MKETTIYGRLVMAVKNTAQVVIGGKIITLGGYESEEYFQKVASYINNKIAELSEMPGYTRQPVETKHTLLSLNVTDDYFKAKKQAEIFEQDLQQKDQEMYELKHELIALRMKIEETEKNAQEAQQQKELLEGKVKELNDEIDKLLK	not soluble
MKFDFPQVDLPCEILAWNDVTEDILNIYKQSCRLKAGIFAICTEGKMTATINLIDYEIKPNDLITLLPGTIIQFRERTEKVRLCFAGFSSECVERINLIKSMVSSFSKITECPIVELQEDIASYLIDYFSLLARVTCDEKLSLPSEMTEVSLRSILTAVGLIYQRYSSKNHNTNRKEEICRELVGLVTEHYTEERRAQFYADKLGISLQHLSTTVKQVTGRNVLDVIAYVVIIDAKAKLKSSNMTIQEIAYSLNFPSASFFGKYFRRYVGMSPLEFRNS	not soluble
